Measured values: patent US20170015742A1 (published 2017)
Changes are numbered by the printed parent chain. Each block holds one binder with its values, some of them ahead of it.

What was measured:
[1] = biological target: T1, recombinant human PDGF-Rβ-Fc (R&D Systems #385-PR) (human, UniProt P09619 33-530); experiment: competition ELISA: antibody on coated hPDGFRβ-Fc against hPDGF-BB-biotin (Example 1.27)
T1 construct: Bought reagent; also called hPDGFRβ-Fc; huPDGF Rβ; not shown: Fc part of the bought fusion protein
T1 sequence (P09619 33-530 limits assumed): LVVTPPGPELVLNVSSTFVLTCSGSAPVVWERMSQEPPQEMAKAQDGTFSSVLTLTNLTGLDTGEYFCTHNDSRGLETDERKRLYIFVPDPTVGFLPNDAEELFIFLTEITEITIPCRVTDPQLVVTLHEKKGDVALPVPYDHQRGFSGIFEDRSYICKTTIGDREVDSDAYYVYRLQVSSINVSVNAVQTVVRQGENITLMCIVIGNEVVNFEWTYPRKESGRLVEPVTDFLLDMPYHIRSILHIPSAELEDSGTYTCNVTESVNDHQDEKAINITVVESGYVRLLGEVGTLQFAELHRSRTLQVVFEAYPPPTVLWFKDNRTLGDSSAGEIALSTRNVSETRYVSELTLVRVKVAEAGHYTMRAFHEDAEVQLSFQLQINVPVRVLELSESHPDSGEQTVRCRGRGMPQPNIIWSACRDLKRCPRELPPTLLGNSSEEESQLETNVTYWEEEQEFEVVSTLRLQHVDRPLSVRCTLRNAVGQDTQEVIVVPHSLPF
Experimental: (§1) Plates were then washed four times with wash buffer (TBS, 0.05% Tween-20) and blocked with Superblock blocking buffer (Thermo Scientific, cat#37535). During the blocking step, supernatants, antibodies and benchmark compounds were diluted in assay diluent (10% Superblock containing 0.05% surfactamps) and an eight point titration of each sample molecule was performed. The samples were added to wells and incubated for 30 minutes at 25° C. with shaking. […] This was added to wells (10 ng/mL/3.97E-10 M final concentration) and incubation was continued for 35 minutes at 25° C. with shaking. Following incubation, plates were washed four times with wash buffer. Detection reagent Streptavidin-polyHRP-40 (Fitzgerald, cat#65r-s104phrp) was diluted in assay diluent and added to plates (50 μL) for 45 minutes at 25° C. with shaking. Plates were washed four times with wash buffer and developed with the addition of Enhanced K-blue TMB substrate (Neogen, cat#308177). The reaction was stopped with 2N sulfuric acid (VWR, cat# BDH3500-1) and the absorbance was read at 450 nm-570 nm. […] Data was analyzed using Softmax Pro 4.8 software and IC₅₀ values calculated using a sigmoidal dose response (variable slope) fit in GraphPad Prism 5.

[2] = biological target: T2, recombinant human PDGF-Rβ-Fc (human, UniProt P09619 33-530); experiment: competition ELISA: antibody added to coated hPDGF-Rβ-Fc, then hPDGF-BB-biotin (competitor)
T2 construct: also called hPDGFRβ-Fc; hPDGF-Rβ; not shown: Fc part of the bought fusion protein
T2 sequence (P09619 33-530 limits assumed): as above
Experimental: as §1

[3] = biological target: T3, recombinant human PDGF-BB (human, UniProt P01127 82-190); experiment: cell-based or functional assay
T3 sequence (P01127 82-190 limits assumed): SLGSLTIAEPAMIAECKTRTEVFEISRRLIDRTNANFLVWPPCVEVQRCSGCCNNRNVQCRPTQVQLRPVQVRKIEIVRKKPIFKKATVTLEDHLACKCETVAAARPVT

[4] = biological target: T3, recombinant human PDGF-BB; experiment: competition ELISA: antibody pre-incubated with hPDGF-BB-biotin, then added to coated hPDGF-Rβ-Fc (competitor)
Experimental: (§2) Plates were then washed four times with wash buffer (TBS, 0.05% Tween-20) and blocked with Superblock blocking buffer (Thermo Scientific, cat#37535). During the blocking step, supernatants, antibodies, benchmark compounds or DVD-Ig were diluted in assay diluent (10% Superblock containing 0.05% surfactamps) and an eight point titration of each sample molecule was performed. […] Following incubation, plates were washed four times with wash buffer. Detection reagent Streptavidin-polyHRP-40 (Fitzgerald, cat#65r-s104phrp) was diluted in assay diluent and added to plates (50 μL) for 45 minutes at 25° C. with shaking. Plates were washed four times with wash buffer and developed with the addition of Enhanced K-blue TMB substrate (Neogen, cat#308177). The reaction was stopped with 2N sulfuric acid (VWR, cat# BDH3500-1) and the absorbance was read at 450 nm-570 nm. […] Data was analyzed using Softmax Pro 4.8 software and IC₅₀ values calculated using a sigmoidal dose response (variable slope) fit in GraphPad Prism 5.

[5] = biological target: T4, recombinant human VEGF-R2-Fc (R&D Systems cat#357-KD) (human, UniProt P35968 20-764); experiment: direct binding ELISA on coated recombinant human VEGF-R2-Fc (Example 1.22)
T4 construct: Bought reagent; also called hVEGFR2-Fc; hVEGF-R2 (KDR/Flk-1); not shown: Fc part of the bought fusion protein
T4 sequence (P35968 20-764 limits assumed): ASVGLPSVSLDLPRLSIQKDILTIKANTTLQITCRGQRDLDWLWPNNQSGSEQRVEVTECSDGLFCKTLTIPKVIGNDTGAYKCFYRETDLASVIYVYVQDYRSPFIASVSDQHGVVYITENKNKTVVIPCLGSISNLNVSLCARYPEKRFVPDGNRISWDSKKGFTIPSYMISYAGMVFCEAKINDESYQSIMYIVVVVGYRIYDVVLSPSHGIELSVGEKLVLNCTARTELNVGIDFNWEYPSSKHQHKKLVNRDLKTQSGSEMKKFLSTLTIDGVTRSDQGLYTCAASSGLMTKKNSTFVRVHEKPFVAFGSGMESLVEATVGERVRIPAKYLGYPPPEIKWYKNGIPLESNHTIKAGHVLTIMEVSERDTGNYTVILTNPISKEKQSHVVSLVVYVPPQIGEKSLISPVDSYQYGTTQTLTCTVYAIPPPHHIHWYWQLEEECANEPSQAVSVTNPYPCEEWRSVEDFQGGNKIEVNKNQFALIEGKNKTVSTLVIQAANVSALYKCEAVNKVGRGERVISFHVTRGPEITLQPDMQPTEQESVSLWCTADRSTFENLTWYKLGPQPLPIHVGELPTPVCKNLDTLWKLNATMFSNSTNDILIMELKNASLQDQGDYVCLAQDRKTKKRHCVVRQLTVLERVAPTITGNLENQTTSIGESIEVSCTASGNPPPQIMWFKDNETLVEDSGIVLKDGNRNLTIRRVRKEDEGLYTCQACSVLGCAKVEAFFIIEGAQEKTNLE
Experimental: Plates were then washed four times with wash buffer (TBS, 0.05% Tween-20) and blocked with Superblock blocking buffer (Thermo Scientific, cat#37535). […] Following incubation, plates were washed four times with wash buffer. […] Plates were washed four times with wash buffer and developed with the addition of Enhanced K-blue TMB substrate (Neogen cat#308177). The reaction was stopped with 2N sulfuric acid (VWR, cat# BDH3500-1) and the absorbance was read at 450 nm-570 nm. […] Data was analyzed using Softmax Pro 4.8 software and IC₅₀ values calculated using a sigmoidal dose response (variable slope) fit in GraphPad Prism 5.

[6] = biological target: T5, recombinant human PDGF-BB (human, UniProt P01127 82-190, biotin-labelled in the binding and competition ELISAs (sites not given)); experiment: receptor competition ELISA: antibody pre-incubated with biotin-hPDGF-BB, binding to coated hPDGF-Rβ-Fc
T5 construct: Bought protein (CST cat#8912BF) in the ELISAs and cell assays; purified recombinant PDGF-BB in Biacore; also called huPDGF-BB; hPDGF-BB
T5 sequence (P01127 82-190 limits assumed): as the sequence (P01127 82-190 limits assumed) above
Experimental: as §2

[7] = biological target: T5, recombinant human PDGF-BB; experiment: Biacore SPR, antibody captured by anti-human Fc, PDGF-BB injected
Experimental: For example, approximately 9000 RU of goat anti-human Fc specific polyclonal antibody (Thermo Fisher Scientific Inc., Rockford, Ill.) diluted in 10 mM sodium acetate (pH 4.5) is directly immobilized across a CM5 research grade biosensor chip using a standard amine coupling kit according to manufacturer's instructions and procedures at 25 μg/ml. Unreacted moieties on the biosensor surface were blocked with ethanolamine. For kinetic analysis, rate equations derived from the 1:1 Langmuir binding model were fitted simultaneously to multiple antigen injections (using global fit analysis) with the use of Scrubber 2 (BioLogic Software), Biacore Biaevaluation 4.0.1 software or Biacore T100 Evaluation software. Purified antibodies or DVD-Ig molecules were diluted in running buffer for capture across goat anti-human Fc reaction surfaces. Antibodies or DVD-Ig molecules to be captured as a ligand (1 μg/ml) were injected over reaction matrices at a flow rate of 10 μl/minute. During the assay, all measurements were referenced against the capture surface alone (i.e., with no captured antibody or DVD-Ig molecule). […] The equilibrium dissociation constant KD (M) of the reaction between antibodies and the target antigen was then calculated from the kinetic rate constants by the following formula: KD=Koff/Kₒₙ. Binding was recorded as a function of time and kinetic rate constants were calculated.

[8] = biological target: T5, recombinant human PDGF-BB; experiment: direct binding ELISA, biotin-hPDGF-BB on neutravidin plates, antibody titrated
Experimental: Plates were then washed four times with wash buffer (TBS, 0.05% Tween-20). The sample molecule titration was added to the coated plate at 50 μL in duplicate and incubated for one hour at 25° C. with shaking. Following incubation, plates were washed four times with wash buffer. The appropriate anti-species-IgG HRP conjugate was in assay diluent (10% Superblock containing 0.05% surfactamps) and added to plates (50 μL) for one hour at 25° C. with shaking. Plates were washed four times with wash buffer and developed with the addition of Enhanced K-blue TMB substrate (Neogen, cat#308177). The reaction was stopped with 2N sulfuric acid (VWR, cat# BDH3500-1) and the absorbance was read at 450 nm-570 nm. […] Data was analyzed using Softmax Pro 4.8 software and IC₅₀ values calculated using a sigmoidal dose response (variable slope) fit in GraphPad Prism 5.

[9] = biological target: T5, recombinant human PDGF-BB; experiment: cell-based or functional assay
[10] = biological target: recombinant rat PDGF-BB (rat, UniProt Q05028 74-182); experiment: cell-based or functional assay
recombinant rat PDGF-BB, sequence (Q05028 74-182 limits assumed): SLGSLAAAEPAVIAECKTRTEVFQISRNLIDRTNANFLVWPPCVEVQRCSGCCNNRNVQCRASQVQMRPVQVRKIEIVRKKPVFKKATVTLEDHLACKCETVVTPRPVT

IC50 [1]: 0.832 nM
B1: BDE-3C9-G4 (antibody, V domains shown)
VH: EVQLVESGGGLVQPGRSLKLSCAASGFTFSNYGMAWVRQAPTQGLEWVASITNSGGNTYYRDSVKGRFTISRDSAKNTQYLQMDSLRSEDTATYFCARHTPGANYFDYWGQGLMVTVSS
VL: DIQMTQSPPSLSASLGEKVTITCQASQSIKNYIAWYQLKPGTAPRLLMRYTSTLESGTPSRFSGSGSGRDYSFSISNVESEDIASYYCVQYANLYTFGGGTKLELK
notes: Rat hybridoma anti-human PDGFR-B monoclonal antibody, isotype IgG2b/κ

IC50 [1]: 0.527 nM
B5: BDE-4F2-D4 (antibody, V domains shown)
VH: QVQLKESGPGLMQPSQTLSLTCTVSGFSLTNYGVSWVRQFPGKGLEWIAAISSGGSTYYNSALKSRLSISRDTSRSQVFLKMNSLLTEDTAFYFCTRVYYGSNYFDYWGPGVMVTVSS
VL: DIVMTQTPSSQAVSAGEKVTMSCKSSQSLLYGGDQKNFLAWYQQKPGQSPKLLIYLASTRESGVPDRFIGSGSGTDFTLTISSVQAEDLADYYCQQHYGYPFTFGSGTKLEIK
notes: Rat hybridoma anti-human PDGFR-B monoclonal antibody, isotype IgG2a/κ

binding result [5]: binds
B6: BCU-7A6-C2 (antibody, V domains shown)
VH: EVQLVESGGGLVQPRGSLKLSCAASGFDFNSYGMSWVRQAPGKGLDLVADISSKSYNYATYYADSVKDRFTISRDDSQSMVYLQMDNLKTEDTALYYCTESLELGGAYWGQGTLVTVSS
VL: DIQMTQSPPSLSASLGDEVTITCQASQNINKFIAWYQQKPGKAPRLLIRYTSTLKSGTPSRFSGSGSGRDYSFSISNVESEDIASYYCLQYDSLPWTFGGGTKLELK
notes: Rat hybridoma anti-human VEGFR II monoclonal antibody, isotype IgG2b/κ

The remaining lines, values behind:

B2: hBDE-3C9.1 (antibody, V domains shown)
VH: B1 VH with R16G, K19R, T42G, Q43K, S74N, D84N, S88A, T93V, L113T
VL: DIQMTQSPSSLSASVGDRVTITCQASQSIKNYIAWYQLKPGKAPRLLMRYTSTLESGTPSRFSGSGSGRDYTFTISSLQPEDIATYYCVQYANLYTFGGGTKVEIK
notes: Humanized anti-human PDGFR-B IgG from pHybE expression vectors
IC50 [2]: 0.217 nM

B3: hBDE-3C9.2 (antibody, V domains shown)
VH: EVQLVESGGGLVQPGGSLRLSCAASGFTFSNYGMAWVRQAPGKGLEWVASITNSGGNTYYRDSVKGRFTISRDNAKNSLYLQMNSLRAEDTAVYYCARHTPGANYFDYWGQGTMVTVSS
VL: B2 VL with L38Q, M48I, T58V
notes: as for B2
IC50 [2]: 0.26 nM

B4: hBDI-9E8.4 (antibody, V domains shown)
VH: EVTLRESGPALVKPTQTLTLTCTFSGFSLSTYGMGVGWIRQPPGKALEWLANIWWDDDKYYNPSLKNRLTISKDTSKNQVVLTMTNMDPVDTATYYCARIESIGTTYSFDYWGQGTMVTVSS
VL: EFVLTQSPGTLSLSPGERATLSCERSSGDIGDSYVSWYQQKPGQAPRLVIYADDQRPSGIPDRFSGSGSGTDFTLTISRLEPEDFAVYYCQSYDINIDIVFGGGTKVEIK
notes: Humanized IgG from pHybE expression vectors, made in HEK293 6E and protein A purified; also called h9E8.4
hPDGF-BB IC50 (nM), hPDGF-BB-induced NIH-3T3 cell proliferation [3]: 0.061 nM
IC50 [4]: 4.3 nM

B7: chBDI-9E8 (antibody, V domains shown)
VH: QVTLKESGPGILQPSQTLSLTCTFSGFSLSTYGMGVGWIRQPSGKGLEWLANIWWDDDKYYNPSLKNRLTISKDTSNNQAFLKITNVDTADTATYYCARIESIGTTYSFDYWGQGVMVTVSS
VL: QFTLTQPKSVSGSLRSTITIPCERSSGDIGDSYVSWYQQHLGRPPINVIYADDQRPSEVSDRFSGSIDSSSNSASLTITNLQMDDEADYFCQSYDINIDIVFGGGTKLTVL
notes: also called chimeric BDI-9E8-E7
IC50 [6]: 0.791 nM
Kd [7]: ≤ 0.012 nM
koff [7]: 0.00012 s⁻¹
kon [7]: ≥ 1e+07 M⁻¹ s⁻¹
EC50 [8]: 0.38 nM
huPDGF-BB Neutralization Potency (nM) in NIH-3T3 Cells [9]: 0.058 nM
ratPDGF-BB Neutralization Potency (nM) in NIH-3T3 Cells [10]: 0.075 nM

B8: chBDI-5H1 (antibody, human IgG1, V domains shown)
VH: QVTLKESGPGILQPSQTLSLTCTFSGFSLSTFGMGVGWIRQPSGKGLEWLANIWWDDDKYYNPSLKNRLTISKDTSNSQAFLEITNVDTADTATYYCARISTGISSYYVMDAWGQGASVTVSS
VL: B7 VL with S32T, A51G, D52N, I96S, N97D
notes: also called chimeric BDI-5H1-F6
IC50 [6]: 1.04 nM
Kd [7]: ≤ 0.015 nM
koff [7]: 0.00015 s⁻¹
kon [7]: ≥ 1e+07 M⁻¹ s⁻¹
EC50 [8]: 0.12 nM
huPDGF-BB Neutralization Potency (nM) in NIH-3T3 Cells [9]: 0.275 nM
ratPDGF-BB Neutralization Potency (nM) in NIH-3T3 Cells [10]: 0.17 nM

B9: hBDI-9E8.11 (antibody, V domains shown)
VH: EVQLVESGGGLVQPGGSLRLSCAFSGFSLSTYGMGVGWIRQAPGKGLEWLANIWWDDDKYYNPSLKNRLTISKDTSKNQAYLQINSLRAEDTAVYYCARIESIGTTYSFDYWGQGTLVTVSS
VL: DFVLTQSPDSLAVSLGERATINCERSSGDIGDSYVSWYQQKPGQPPKNVIYADDQRPSGVPDRFSGSGSGNSASLTISSLQAEDVAVYFCQSYDINIDIVFGGGTKVEIK
notes: Humanized IgG from pHybE expression vectors, made in HEK293 6E and protein A purified
hPDGF-BB IC50 (nM), hPDGF-BB-induced NIH-3T3 cell proliferation [3]: 0.309 nM
IC50 [4]: 1.73 nM
